Measurements reported in patent publication US20170128544A1.

Target: Bb, the active site-bearing fragment of Factor B (human) (UniProt P00751)
Assay: surface plasmon resonance, decay-dissociation of the convertase

Sequence of Bb, the active site-bearing fragment of Factor B (human) (P00751 260-764 limits assumed): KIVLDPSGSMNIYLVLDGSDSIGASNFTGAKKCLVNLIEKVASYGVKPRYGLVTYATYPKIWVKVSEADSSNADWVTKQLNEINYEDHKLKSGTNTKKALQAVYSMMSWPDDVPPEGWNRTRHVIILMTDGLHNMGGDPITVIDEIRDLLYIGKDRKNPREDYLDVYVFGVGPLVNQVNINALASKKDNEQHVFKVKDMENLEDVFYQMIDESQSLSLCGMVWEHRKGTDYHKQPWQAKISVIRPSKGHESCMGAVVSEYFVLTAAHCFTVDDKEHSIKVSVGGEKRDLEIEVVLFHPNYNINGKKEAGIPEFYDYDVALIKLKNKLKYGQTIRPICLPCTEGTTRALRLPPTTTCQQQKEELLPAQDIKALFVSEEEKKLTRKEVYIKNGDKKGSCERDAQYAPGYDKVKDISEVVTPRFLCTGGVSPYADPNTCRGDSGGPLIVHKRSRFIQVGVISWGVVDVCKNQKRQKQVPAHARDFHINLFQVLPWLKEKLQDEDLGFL

| Substance | Half-life at 25° C. (hrs) of the spontaneous decay-dissociation |
| --- | --- |
| cobra venom factor (CVF), natural (from UniProt Q91132 23-649; Q91132 733-984; Q91132 1264-1642) | 19.2 h |
| humanized cobra venom factor (hCVF) protein HC3-1550b (from UniProt P01024 23-1549; Q91132 1529-1642) | 2 h |
